Source: the MegaScale stability set (Tsuboyama et al. 2023)

B1: HEEH_KT_rd6_3632 (parent)
chain: DAEELIELVERALKEGREIILLGVRITSEEAGKWFIEWIRRFL

Variants of: B1
Assay: folding stability dG (cDNA display proteolysis); higher = more stable
Details: PBS, room temperature

Folding stability dG [kJ/mol]: each site, then its substitutions
E29: P 17; Y 16.6; D 15.4; T 16; S 15.5; H 15.4; R 15.5; Q 16.6; A 16.3; K 16; M 16.4; W 17.2; L 16.4; V 15.9; F 16.2; N 15.9; I 16.5; G 15.2
I39: T 10.3; D 10.5; A 12.2; F 14.5; R 11.4; P 9.29; S 11.1; Q 11; M 15; W 13.5; Y 14.4; K 10.7; H 11.4; L 16.8; N 11; C 14.6; V 15.1; G 11.1; E 11.2
K33: W 15.5; M 14.9; I 14.9; S 14.2; L 15.2; P 13.4; V 14.9; E 14.3; G 14; T 14.9; A 15.8; N 14.7; D 14.1; R 16.8; C 16.7; F 14.6; Y 15.1; Q 15.2; H 14.7
S28: E 13.5; Q 13.1; I 14.5; C 16; Y 14.5; L 15.6; V 15; P 14.7; D 15.2; A 14.7; G 16; M 13.9; T 15.5; K 13.3; H 14; F 15.1; W 16.4; R 14.4; N 15.8
E30: Y 15.7; M 16.1; N 14.9; W 16.8; R 16; F 15.7; S 15.5; H 15; V 16.5; I 15.7; T 14.9; G 15.2; D 15.2; A 16.7; Q 15.8; P 14.8; K 15.3; L 16.3
W38: R 12.1; K 12; M 13.9; I 13.4; N 11.7; G 9.79; Q 12.4; L 14.3; Y 14.1; E 11; F 15.3; A 12.3; T 11.7; D 8.36; H 11.8; C 16.5; V 12.4; P 9.46; S 11.3
I26: N 13.4; W 14.2; E 13.9; Q 13.4; F 14.4; A 14; G 12.1; P 13.3; D 12.4; C 18.2; H 12.9; V 13.8; Y 14; L 14.1; T 14.6; K 13.6; R 14.1; S 12.8; M 13.9
G23: K 14.8; F 16.4; Q 15.1; C 16; W 17.2; V 16.3; L 16.8; Y 16.4; M 16.4; D 14.1; N 13.9; T 15.2; R 14.8; S 14.9; P 13.7; E 14.3; A 15.4; H 15.1; I 16.2
A31: I 18.2; M 17.1; N 14.6; K 15.1; T 16.2; L 17; Y 15.2; P 13.2; S 15.3; D 16.2; V 17.9; G 15.5; W 16.8; E 17.6; H 15.4; R 15.1; F 16; Q 16.7
W34: P 11.1; M 15.1; K 15.9; Q 15.2; H 14.8; Y 14.4; D 14.2; E 14.3; R 16.7; I 15; V 14; F 14.3; A 16.8; N 14.5; L 15.6; G 13; C 15.8; S 14.3; T 14.4
I36: A 14; L 14.7; E 12.4; D 12.7; P 10.8; H 13.2; T 12.9; G 12.2; N 12.3; F 14.4; S 12.7; Q 13; V 14.1; M 14.1; K 13.6; Y 14.5; R 13.3; W 15.7
V24: M 14.4; F 16.3; E 12.1; D 11.3; R 12.6; T 13.6; N 12.5; L 14.4; I 16.7; K 12.8; A 13.2; Y 14.8; W 15.7; Q 13.1; S 12; G 13.5; H 14.3; P 12.7
R25: H 15.6; Y 15.3; V 15.2; P 13.1; N 14.4; L 16; M 15.3; S 14.7; Q 14.3; E 13.7; T 14.9; I 15.3; D 13.5; G 13.9; W 15.8; K 14.9; F 15.8; A 15.4
R40: A 14.2
F35: P 9.77; G 11; Q 11.9; M 14.3; H 11.9; K 12.9; N 10.6; A 12.7; W 14.4; R 12.5; L 15.3; S 12; V 15.3; Y 13.6; D 10.9; E 11; I 16.1; T 12.4
E37: S 14.7; K 15.3; F 15.5; A 16; H 14.5; W 16.2; R 15.1; M 16; D 14.9; G 14.3; T 14.5; L 16.5; Y 16.4; Q 15.4; N 15.1; P 12.2; I 16.2; V 15.8
T27: H 15.9; F 16.9; A 16.5; M 16.3; N 16.7; Q 14.4; E 14.4; D 17; R 14.7; W 16.5; V 16.3; P 13.3; I 16.3; K 15; L 16.7; G 15.4; S 15.3; Y 15.6
L22: H 13.1; M 14.8; Y 13.5; T 12.9; S 13; I 14.9; Q 13.1; R 13.8; K 12.7; C 19.8; F 15.2; W 17.1; V 13.8; P 11.2; G 12.6; E 11.3; N 12.8; A 13.4; D 11.1
L21: Y 13.7
G32: Y 16.1; T 15.2; V 16.2; R 15.6; N 14.1; W 17; M 17; S 14.2; I 17.2; A 16.9; Q 14.4; K 15.4; F 17.4; E 13.5; L 17.5; H 14.4; D 13.1; P 14.2
